Results reported in patent US20160177307.

Tested on: T1, VEGF-121 (Homo sapiens), P15692-9
T1 sequence: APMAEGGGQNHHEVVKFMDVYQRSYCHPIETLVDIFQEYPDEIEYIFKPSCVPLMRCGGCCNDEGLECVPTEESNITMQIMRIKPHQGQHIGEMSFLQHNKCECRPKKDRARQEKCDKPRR
Experiment: filter

[1] = as 4867-31_192, PS 3' of 17 as printed, 3' inverted dT

## CCCTCCATCAGCCGTTCAAGTGCTTGTAGGATTTAAATGGAATTGGAGA [4867-15_72]
P=Nap-dU, C3 spacer at 49
  Kd: 0.19 nM

## CCCTCCATCAGCCGTTCAAGTGCTTGTAGGATTTAAATGGAATTGGAGG [4867-15_73]
P=Nap-dU, C3 spacer at 50
  Kd: 0.17 nM

## CCCTCCATCAGCCGTTCAAGTGCTTGTAGGATTTAAATGGAATTGGAGGA [4867-31_2 (4867-15_2, 50-mer)]
All P are NapdU, rest DNA, 50-mer parent
  Kd: 0.15 nM

## CCCTCCATCAGCCGTTCAAGTGCTTGTAGGATTTAAATGGAATTGGGGA [4867-15_70]
P=Nap-dU, C3 spacer at 47
  Kd: 0.68 nM

## CCCTCCATCAGCCGTTCAAGTGCTTGTAGGATTTAAATGGATTGGAGGA [4867-15_64]
P=Nap-dU, C3 spacer at 41
  Kd: 0.22 nM

## CCCTCCATCAGCCGTTCAAGTGCTTGTAGGATTTAAATGGATTGGAGGA [4867-15_65]
P=Nap-dU, C3 spacer at 42
  Kd: 0.13 nM

## CCCTCCATCAGCCGTTCAAGTGCTTGTGGATTTAAATGGAATTGGAGGA [4867-15_51]
P=Nap-dU, C3 spacer at 28
  Kd: 1.6 nM

## CCCTCCATCAGCCGTTCAAGTGCTTTAGGATTTAAATGGAATTGGAGGA [4867-15-49]
C3 spacer at 26 as stated in text numbering is nearby G (single V in SEQ:614), all P are NapdU, C3 spacer at G26 tolerated
  Kd: 0.079 nM

## CCCTCCATCAGCCGTTCAATGCTTGTAGGATTTAAATGGAATTGGAGGA [4867-15_43]
P=Nap-dU, C3 spacer at 20
  Kd: 9.2 nM

## CCCTCCATCAGCCGTTCAGTGCTTGTAGGATTTAAATGGAATTGGAGGA [4867-15_41]
P=Nap-dU, C3 spacer at 18
  Kd: 13 nM

## CCCTCCATCAGCCGTTCAGTGCTTGTAGGATTTAAATGGAATTGGAGGA [4867-15_42]
P=Nap-dU, C3 spacer at 19
  Kd: 31 nM

## CCCTCCATCAGCCTTCAAGTGCTTGTAGGATTTAAATGGAATTGGAGGA [4867-15_37]
P=Nap-dU, C3 spacer at 14
  Kd: 30 nM

## CCCTCCATCAGCGTTCAAGTGCTTGTAGGATTTAAATGGAATTGGAGGA [4867-15_35]
P=Nap-dU, C3 spacer at 12
  Kd: 3.4 nM

## CCCTCCATCGCCGTTCAAGTGCTTGTAGGATTTAAATGGAATTGGAGGA [4867-15_33]
P=Nap-dU, C3 spacer at 10
  Kd: 0.12 nM

## CCCTCCTCAGCCGTTCAAGTGCTTGTAGGATTTAAATGGAATTGGAGGA [4867-15_30]
P=Nap-dU, C3 spacer at 7
  Kd: 0.11 nM

## CCGTTAAAGTGCTTGTAGGATTTAAATGGA [4867-31_145]
P=Nap-dU
  Kd: 3.08 nM

## CCGTTCAAGTGCTTATAGGATTTAAATGGA [4867-31_148]
P=Nap-dU
  Kd: 0.53 nM

## CCGTTCAAGTGCTTCTAGGATTTAAATGGA [4867-31_149]
P=Nap-dU
  Kd: 0.27 nM

## CCGTTCAAGTGCTTGTAAGATTTAAATGGA [4867-31_151]
P=Nap-dU
  Kd: 0.16 nM

## CCGTTCAAGTGCTTGTACGATTTAAATGGA [4867-31_152]
P=Nap-dU
  Kd: 0.32 nM

## CCGTTCAAGTGCTTGTAGGATTTAAATGG [4867-31_143]
NapdU at 4,5,10,13,14,16,21,22,23,27, rest DNA, SB18T, 37 C, Table 13 gives 0.14 nM
  Kd: 0.17 nM

## CCGTTCAAGTGCTTGTAGGATTTAAATGG [4867-31_154]
NapdU at P, 2'-OMe 4
  Kd: 5.9 nM

## CCGTTCAAGTGCTTGTAGGATTTAAATGG [4867-31_155]
NapdU at P, 2'-OMe 5
  Kd: 3.3 nM

## CCGTTCAAGTGCTTGTAGGATTTAAATGG [4867-31_156]
NapdU at P, 2'-OMe 10
  Kd: 0.68 nM

## CCGTTCAAGTGCTTGTAGGATTTAAATGG [4867-31_157]
NapdU at P, 2'-OMe 13
  Kd: 1.5 nM

## CCGTTCAAGTGCTTGTAGGATTTAAATGG [4867-31_158]
NapdU at P, 2'-OMe 14
  Kd: 1.7 nM

## CCGTTCAAGTGCTTGTAGGATTTAAATGG [4867-31_159]
NapdU at P, 2'-OMe 16
  Kd: 0.56 nM

## CCGTTCAAGTGCTTGTAGGATTTAAATGG [4867-31_160]
NapdU at P, 2'-OMe 21
  Kd: 1.5 nM

## CCGTTCAAGTGCTTGTAGGATTTAAATGG [4867-31_161]
2'-OMe-NapU at 22, other P are NapdU, target taken as VEGF-121
  Kd: 0.064 nM

## CCGTTCAAGTGCTTGTAGGATTTAAATGG [4867-31_162]
2'-OMe-NapU at 23, other P are NapdU, target taken as VEGF-121
  Kd: 8.9 nM

## CCGTTCAAGTGCTTGTAGGATTTAAATGG [4867-31_163]
NapdU at P, 2'-OMe 27
  Kd: 0.26 nM

## CCGTTCAAGTGCTTGTAGGATTTAAATGG [4867-31_191]
NapdU at P, 2'-OMe 9,15,17,18,28,29 as printed
  Kd: 0.1 nM

## CCGTTCAAGTGCTTGTAGGATTTAAATGG [4867-31_409]
As 4867-31_192, PS 3' of 1, 3' inverted dT
  Kd: 0.011 nM

## CCGTTCAAGTGCTTGTAGGATTTAAATGG [4867-31_410]
As 4867-31_192, PS 3' of 2, 3' inverted dT
  Kd: 0.016 nM

## CCGTTCAAGTGCTTGTAGGATTTAAATGG [4867-31_411]
As 4867-31_192 plus PS 3' of G3, 3'-idT, 29259-fold loss from PS at G3
  Kd: 320 nM

## CCGTTCAAGTGCTTGTAGGATTTAAATGG [4867-31_412]
As 4867-31_192, PS 3' of 4, 3' inverted dT
  Kd: 0.022 nM

## CCGTTCAAGTGCTTGTAGGATTTAAATGG [4867-31_413]
As 4867-31_192, PS 3' of 5, 3' inverted dT
  Kd: 0.015 nM

## CCGTTCAAGTGCTTGTAGGATTTAAATGG [4867-31_414]
As 4867-31_192, PS 3' of 7, 3' inverted dT
  Kd: 0.015 nM

## CCGTTCAAGTGCTTGTAGGATTTAAATGG [4867-31_415]
As 4867-31_192, PS 3' of 8, 3' inverted dT
  Kd: 0.011 nM

## CCGTTCAAGTGCTTGTAGGATTTAAATGG [4867-31_416]
As 4867-31_192, PS 3' of 10, 3' inverted dT
  Kd: 0.0093 nM

## CCGTTCAAGTGCTTGTAGGATTTAAATGG [4867-31_417]
As 4867-31_192, PS 3' of 11, 3' inverted dT
  Kd: 0.0094 nM

## CCGTTCAAGTGCTTGTAGGATTTAAATGG [4867-31_420]
As 4867-31_192, PS 3' of 14, 3' inverted dT
  Kd: 0.018 nM

## CCGTTCAAGTGCTTGTAGGATTTAAATGG [4867-31_421]
As 4867-31_192, PS 3' of 16, 3' inverted dT
  Kd: 0.015 nM

## CCGTTCAAGTGCTTGTAGGATTTAAATGG [4867-31_422]
As 4867-31_192, PS 3' of 19, 3' inverted dT
  Kd: 0.0095 nM

## CCGTTCAAGTGCTTGTAGGATTTAAATGG [4867-31_423]
As 4867-31_192, PS 3' of 20, 3' inverted dT
  Kd: 0.018 nM

## CCGTTCAAGTGCTTGTAGGATTTAAATGG [4867-31_424]
As 4867-31_192, PS 3' of 21, 3' inverted dT
  Kd: 0.011 nM

## CCGTTCAAGTGCTTGTAGGATTTAAATGG [4867-31_425]
As 4867-31_192, PS 3' of 22 or 23 (printed P1-P2), 3' inverted dT
  Kd: 0.016 nM

## CCGTTCAAGTGCTTGTAGGATTTAAATGG [4867-31_426]
As 4867-31_192, PS 3' of 24, 3' inverted dT
  Kd: 0.012 nM

## CCGTTCAAGTGCTTGTAGGATTTAAATGG [4867-31_427]
As 4867-31_192, PS 3' of 25, 3' inverted dT
  Kd: 0.0081 nM

## CCGTTCAAGTGCTTGTAGGATTTAAATGG [4867-31_428]
As 4867-31_192, PS 3' of 26, 3' inverted dT
  Kd: 0.0084 nM

## CCGTTCAAGTGCTTGTAGGATTTAAATGG [4867-31_429]
As 4867-31_192, PS 3' of 27, 3' inverted dT
  Kd: 0.012 nM

## CCGTTCAAGTGCTTGTAGGATTTAAATGG [4867-31_438]
As 4867-31_192, PS 3' of 6, 3' inverted dT
  Kd: 0.013 nM

## CCGTTCAAGTGCTTGTAGGATTTAAATGG [4867-31_439]
As 4867-31_192, PS 3' of 9, 3' inverted dT
  Kd: 0.024 nM

## CCGTTCAAGTGCTTGTAGGATTTAAATGG [4867-31_440]
As 4867-31_192, PS 3' of 12, 3' inverted dT
  Kd: 0.0099 nM

## CCGTTCAAGTGCTTGTAGGATTTAAATGG [4867-31_441]
[1]
  Kd: 0.017 nM

## CCGTTCAAGTGCTTGTAGGATTTAAATGG [4867-31_442]
[1]
  Kd: 0.015 nM

## CCGTTCAAGTGCTTGTAGGATTTAAATGG [4867-31_443]
As 4867-31_192, PS 3' of 18, 3' inverted dT
  Kd: 0.0085 nM

## CCGTTCAAGTGCTTGTAGGATTTAAATGG [4867-31_444]
As 4867-31_192 plus PS 3' of G28, 3'-idT, PS walk
  Kd: 0.0075 nM

## CCGTTCAAGTGCTTGTAGGATTTAAATGG [4867-31_445]
As 4867-31_192, PS 3' of 29, 3' inverted dT
  Kd: 0.01 nM

## CCGTTCAAGTGCTTGTAGGATTTAAATGG [4867-31_475]
As 4867-31_192, 2'-OMe 1, PS 25
  Kd: 0.026 nM

## CCGTTCAAGTGCTTGTAGGATTTAAATGG [4867-31_476]
As 4867-31_192, 2'-OMe 1, PS 26, printed 2.1-11
  Kd: 0.021 nM

## CCGTTCAAGTGCTTGTAGGATTTAAATGG [4867-31_477]
As 4867-31_192, 2'-OMe 1, PS 25,26
  Kd: 0.024 nM

## CCGTTCAAGTGCTTGTAGGATTTAAATGG [4867-31_478]
As 4867-31_192, PS 25,26
  Kd: 0.019 nM

## CCGTTCAAGTGCTTGTAGGATTTAAATGG [4867-31_479]
As 4867-31_192, 2'-OMe 1, PS 24
  Kd: 0.026 nM

## CCGTTCAAGTGCTTGTAGGATTTAAATGG [4867-31_480]
As 4867-31_192, 2'-OMe 1, PS 24,25
  Kd: 0.028 nM

## CCGTTCAAGTGCTTGTAGGATTTAAATGG [4867-31_481]
As 4867-31_192 plus 2'-OMe C1 and PS 3' of A24,A25,A26, 3'-idT
  Kd: 0.026 nM

## CCGTTCAAGTGCTTGTAGGATTTAAATGG [4867-31_482]
As 4867-31_192, PS 24,25,26
  Kd: 0.024 nM

## CCGTTCAAGTGCTTGTAGGATTTAAATGG [4867-31_483]
As 4867-31_192, PS 24,25
  Kd: 0.032 nM

## CCGTTCAAGTGCTTGTAGGATTTAAATGGCGACAGCATGTATGCACATCT [5169-4_93 (VEGF-6Heg-PDGF)]
P NapdU, superscript 1 2'-OMe, six Heg linkers
  Kd: 0.052 nM

## CCGTTCAAGTGCTTGTAGGATTTAAATGGCGACAGCATGTATGCACATCT [5169-4_94]
VEGF-5Heg-PDGF, NapdU, 2'-OMe
  Kd: 0.066 nM

## CCGTTCAAGTGCTTGTATGATTTAAATGGA [4867-31_153]
P=Nap-dU
  Kd: 0.21 nM

## CCGTTCAAGTGCTTTAGATTTAAATGG [4867-31_184]
NapdU at P, C3 spacer 15,18, 2'-OMe 9,17
  Kd: 0.084 nM

## CCGTTCAAGTGCTTTAGATTTAAATGG [4867-31_185]
NapdU at P, C3 spacer 15,18, 2'-OMe 6,9,12,17,28,29
  Kd: 0.26 nM
